Data reported in patent US7078511B1.

Columns and labels:
[1] = molecular target: Drosophila melanogaster scavenger receptor type CI (Drosophila melanogaster)
[2] = molecular target: hamster scavenger receptor type BI (hamster); assay: ^125I-AcLDL (5 µg/ml) binding at 4° C. to ldlA[haSR-BI] cells, no competitor

| Substance | ^125I-AcLDL Degradation (% No Competitor) (% No Competitor) [1] | 125I-AcLDL binding (ng/mg cell protein) [2] |
| --- | --- | --- |
| Poly D-glutamic acid (peptide) | 34 |  |
| acetylated low density lipoprotein | 4.8 | 293 |
| low density lipoprotein | 97.6 |  |
